Measured values reported in PMC6093203.

Target: F-ΔC2-WWP2 (UniProt O00308)
Assay: fluorescence polarisation

Kd: 20 µM
Substance: non-phosphorylated PTEN (n-PTEN) (natural protein)
